Experimental findings from publication PMC6403468 are described below.

The experiment has as its target VLDLR fused to monomeric GFP (VLDLR_mGFP) (mouse). As to the kind of experiment: FRET or BRET; time-resolved fluorescence anisotropy imaging (TR-FAIM, homo-FRET) of mGFP-tagged proteins in living HEK293 cells, rFRET from global fit, Imaging Medium; basal state, and before and after 1 uM AP20187, FL-Reelin or R3-6 (up to 90 nM).

For the substance “VLDLR fused to monomeric GFP (VLDLR_mGFP) (receptor)”, the rFRET stood at 0.0858.
